Key:
Test in all cases: cell-based or functional assay
[1] = target: purified human coagulation factor X (zymogen) (human) (UniProt P00742)
[2] = target: purified coagulation factor VII (zymogen)
[3] = target: purified coagulation factor IX (zymogen)

Chain of UniProt P00742 (P00742 41-179 limits assumed, chain 1 of 2): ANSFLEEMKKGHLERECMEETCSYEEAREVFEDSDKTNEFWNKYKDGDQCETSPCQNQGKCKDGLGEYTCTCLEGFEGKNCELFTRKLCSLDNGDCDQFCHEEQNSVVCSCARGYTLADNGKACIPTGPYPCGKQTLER
Chain of UniProt P00742 (P00742 183-488 limits assumed, chain 2 of 2): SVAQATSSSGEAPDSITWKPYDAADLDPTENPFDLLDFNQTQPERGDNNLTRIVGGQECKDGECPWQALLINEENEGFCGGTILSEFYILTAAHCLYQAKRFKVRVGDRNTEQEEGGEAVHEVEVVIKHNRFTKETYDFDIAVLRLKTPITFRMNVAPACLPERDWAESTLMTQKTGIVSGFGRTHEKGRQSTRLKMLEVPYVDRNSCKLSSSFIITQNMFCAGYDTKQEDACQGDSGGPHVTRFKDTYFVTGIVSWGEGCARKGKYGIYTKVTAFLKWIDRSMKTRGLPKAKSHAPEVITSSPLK

Q: What does the source list for “C. canimorsus DPP7 (Capnocytophaga canimorsus 5 dipeptidyl peptidase 7) with a C-terminal Strep-His tag (enzyme)”?
A: PT (prothrombin time) in factor deficient plasma [1]: 10 fold; PT (prothrombin time) in factor deficient plasma [2]: 30%; aPTT in factor deficient plasma [3]: 2 fold

Reference: patent EP3263700A1
